Assay results: article PMC7238435

Biological target: recombinant human cartilage oligomeric matrix protein (COMP) (human) (UniProt P49747)
Assay: atomic force microscopy

Sequence of recombinant human cartilage oligomeric matrix protein (COMP), P49747 21-757 (natural protein; other documents disagree on this pair) (P49747 21-757): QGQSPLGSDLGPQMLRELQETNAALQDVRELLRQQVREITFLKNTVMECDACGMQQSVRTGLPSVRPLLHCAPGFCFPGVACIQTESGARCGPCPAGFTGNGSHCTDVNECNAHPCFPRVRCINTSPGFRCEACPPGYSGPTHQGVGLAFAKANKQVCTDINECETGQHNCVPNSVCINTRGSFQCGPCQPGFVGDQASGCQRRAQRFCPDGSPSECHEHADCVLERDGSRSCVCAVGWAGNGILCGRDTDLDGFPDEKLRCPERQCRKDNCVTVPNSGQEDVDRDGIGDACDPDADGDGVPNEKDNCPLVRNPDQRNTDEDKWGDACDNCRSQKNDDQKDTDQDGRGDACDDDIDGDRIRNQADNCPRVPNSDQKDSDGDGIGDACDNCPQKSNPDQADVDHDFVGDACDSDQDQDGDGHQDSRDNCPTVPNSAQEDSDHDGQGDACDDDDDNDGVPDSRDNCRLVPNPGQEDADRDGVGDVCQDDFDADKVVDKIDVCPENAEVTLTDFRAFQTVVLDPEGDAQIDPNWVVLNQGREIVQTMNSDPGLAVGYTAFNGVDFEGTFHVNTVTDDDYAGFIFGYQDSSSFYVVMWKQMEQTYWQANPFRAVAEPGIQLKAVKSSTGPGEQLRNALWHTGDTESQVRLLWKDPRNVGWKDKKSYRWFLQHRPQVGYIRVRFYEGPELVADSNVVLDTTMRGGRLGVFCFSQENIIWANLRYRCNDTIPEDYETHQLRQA

In the case of “recombinant human cartilage oligomeric matrix protein (COMP), P49747 21-757 (natural protein; other documents disagree on this pair)”, the stoichiometry N is reported as 5.
